Test results: the supplement of paper PMC10065799, “High-throughput profiling of sequence recognition by tyrosine kinases and SH2 domains using bacterial peptide display” (eLife, 2023)

Legend:
AncSZ = test: phosphorylation enrichment, bacterial display (enrichment ratio); higher = better substrate or ligand; peptides without Tyr show the background
EPHB1 = EPHB1 (UniProt P54762); test: as above
EPHB2 = EPHB2 (UniProt P29323); test: as above
FGFR1 = FGFR1 (UniProt P11362); test: as above
FGFR3 = FGFR3 (UniProt P22607); test: as above
Fer (mouse) = test: as above
Fes = Fes (UniProt P07332); test: as above
Fyn = Fyn (UniProt P06241); test: as above
Fyn, sequence (P06241 whole entry, looked up): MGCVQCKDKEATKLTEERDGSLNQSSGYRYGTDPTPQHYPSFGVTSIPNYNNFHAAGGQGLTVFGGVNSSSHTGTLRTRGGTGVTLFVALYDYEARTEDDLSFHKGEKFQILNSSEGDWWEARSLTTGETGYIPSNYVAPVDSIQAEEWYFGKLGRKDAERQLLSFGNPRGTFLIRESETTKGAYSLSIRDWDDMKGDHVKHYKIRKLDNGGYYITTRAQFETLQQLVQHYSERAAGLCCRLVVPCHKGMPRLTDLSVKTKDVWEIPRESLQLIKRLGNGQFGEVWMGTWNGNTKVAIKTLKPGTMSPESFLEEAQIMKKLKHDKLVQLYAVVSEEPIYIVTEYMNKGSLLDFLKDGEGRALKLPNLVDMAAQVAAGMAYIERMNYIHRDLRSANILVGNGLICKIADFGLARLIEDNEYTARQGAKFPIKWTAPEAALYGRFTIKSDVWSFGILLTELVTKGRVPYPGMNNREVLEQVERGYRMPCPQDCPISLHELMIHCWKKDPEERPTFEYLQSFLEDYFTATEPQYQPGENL

Hck = Hck (UniProt P08631); test: as above
Jak2 = Jak2 (UniProt O60674); test: as above
MERTK = MERTK (UniProt Q12866); test: as above
MERTK, sequence (Q12866 whole entry, looked up): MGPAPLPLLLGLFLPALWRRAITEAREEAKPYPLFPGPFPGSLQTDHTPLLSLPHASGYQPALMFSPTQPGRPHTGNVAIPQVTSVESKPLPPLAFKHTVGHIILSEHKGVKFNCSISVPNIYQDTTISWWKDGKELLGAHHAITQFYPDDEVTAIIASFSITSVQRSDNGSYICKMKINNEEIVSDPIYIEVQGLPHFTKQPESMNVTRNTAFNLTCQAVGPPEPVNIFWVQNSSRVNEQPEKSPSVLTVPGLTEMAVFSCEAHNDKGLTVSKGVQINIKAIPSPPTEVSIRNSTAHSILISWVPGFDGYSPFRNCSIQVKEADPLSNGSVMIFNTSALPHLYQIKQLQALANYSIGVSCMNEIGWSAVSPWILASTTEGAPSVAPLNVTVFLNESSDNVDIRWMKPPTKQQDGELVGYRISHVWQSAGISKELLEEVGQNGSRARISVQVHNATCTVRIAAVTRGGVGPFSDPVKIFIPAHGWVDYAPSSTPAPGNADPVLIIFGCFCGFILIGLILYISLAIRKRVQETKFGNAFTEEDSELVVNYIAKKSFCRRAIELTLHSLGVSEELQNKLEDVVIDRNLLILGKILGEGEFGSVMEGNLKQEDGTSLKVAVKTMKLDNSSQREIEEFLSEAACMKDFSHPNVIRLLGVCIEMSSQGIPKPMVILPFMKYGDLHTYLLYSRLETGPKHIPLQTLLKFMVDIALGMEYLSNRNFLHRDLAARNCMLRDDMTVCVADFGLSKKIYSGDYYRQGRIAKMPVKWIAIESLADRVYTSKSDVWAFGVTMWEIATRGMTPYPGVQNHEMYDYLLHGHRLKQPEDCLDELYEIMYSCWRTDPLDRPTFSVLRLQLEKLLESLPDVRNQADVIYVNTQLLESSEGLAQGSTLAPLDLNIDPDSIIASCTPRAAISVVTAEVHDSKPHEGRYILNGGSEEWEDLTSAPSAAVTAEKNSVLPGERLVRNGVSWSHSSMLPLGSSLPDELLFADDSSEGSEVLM

c-Abl (mouse) = test: as above
c-Src = test: as above
Grb2 SH2 = Grb2 SH2 (UniProt P62993); test: SH2 binding enrichment of the phosphorylated peptide, bacterial display (enrichment ratio); higher = better substrate or ligand; peptides without Tyr show the background
Grb2 SH2, sequence (P62993 whole entry, looked up): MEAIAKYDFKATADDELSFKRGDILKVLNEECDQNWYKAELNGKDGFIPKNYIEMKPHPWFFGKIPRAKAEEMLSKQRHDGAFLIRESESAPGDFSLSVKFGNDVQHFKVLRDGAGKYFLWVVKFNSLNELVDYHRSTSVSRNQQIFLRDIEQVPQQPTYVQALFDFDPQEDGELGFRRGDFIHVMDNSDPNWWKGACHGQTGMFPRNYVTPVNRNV

SHP2-C SH2 = test: as above
c-Src SH2 = test: as above
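Throughout, for SH2 binding enrichment of the phosphorylated peptide, bacterial display: peptide library displayed on the E. coli surface as eCPX fusions, selected cells deep-sequenced, score is each peptide's frequency after selection divided by its frequency in the input.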
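Throughout, for phosphorylation enrichment, bacterial display: 11-residue human phosphosite peptides and single-mutation variants displayed on the E. coli surface, counted by deep sequencing, each peptide's frequency after selection divided by its frequency in the unselected input library; frequency after pTyr selection over input frequency; kinase dosed for 20-30% of maximal phosphorylation in three min.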

EPHB1, sequence (P54762 whole entry, looked up): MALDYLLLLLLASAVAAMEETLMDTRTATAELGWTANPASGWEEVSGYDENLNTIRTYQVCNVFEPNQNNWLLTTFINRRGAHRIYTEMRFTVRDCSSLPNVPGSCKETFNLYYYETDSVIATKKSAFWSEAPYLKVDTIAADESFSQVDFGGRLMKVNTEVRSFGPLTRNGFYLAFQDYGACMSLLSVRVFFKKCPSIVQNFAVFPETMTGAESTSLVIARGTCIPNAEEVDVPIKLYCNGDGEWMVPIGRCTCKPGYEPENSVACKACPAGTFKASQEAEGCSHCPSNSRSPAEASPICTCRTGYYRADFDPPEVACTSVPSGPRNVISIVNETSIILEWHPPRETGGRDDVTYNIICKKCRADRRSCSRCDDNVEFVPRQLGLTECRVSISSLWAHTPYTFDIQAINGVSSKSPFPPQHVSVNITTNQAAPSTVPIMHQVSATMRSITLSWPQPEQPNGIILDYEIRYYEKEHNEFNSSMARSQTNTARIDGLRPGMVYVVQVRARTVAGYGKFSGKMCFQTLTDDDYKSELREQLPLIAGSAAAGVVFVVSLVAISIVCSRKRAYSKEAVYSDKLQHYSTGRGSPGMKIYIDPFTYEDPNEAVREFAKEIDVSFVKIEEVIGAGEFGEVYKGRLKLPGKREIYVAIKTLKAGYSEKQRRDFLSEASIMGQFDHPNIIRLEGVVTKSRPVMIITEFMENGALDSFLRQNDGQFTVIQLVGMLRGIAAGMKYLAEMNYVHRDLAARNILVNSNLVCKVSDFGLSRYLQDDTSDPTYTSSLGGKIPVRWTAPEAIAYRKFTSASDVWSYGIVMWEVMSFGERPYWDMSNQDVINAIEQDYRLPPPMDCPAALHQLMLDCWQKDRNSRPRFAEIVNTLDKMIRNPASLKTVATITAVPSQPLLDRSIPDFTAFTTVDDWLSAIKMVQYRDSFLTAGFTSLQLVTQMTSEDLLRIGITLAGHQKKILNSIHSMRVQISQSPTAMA
FGFR1, sequence (P11362 whole entry, looked up): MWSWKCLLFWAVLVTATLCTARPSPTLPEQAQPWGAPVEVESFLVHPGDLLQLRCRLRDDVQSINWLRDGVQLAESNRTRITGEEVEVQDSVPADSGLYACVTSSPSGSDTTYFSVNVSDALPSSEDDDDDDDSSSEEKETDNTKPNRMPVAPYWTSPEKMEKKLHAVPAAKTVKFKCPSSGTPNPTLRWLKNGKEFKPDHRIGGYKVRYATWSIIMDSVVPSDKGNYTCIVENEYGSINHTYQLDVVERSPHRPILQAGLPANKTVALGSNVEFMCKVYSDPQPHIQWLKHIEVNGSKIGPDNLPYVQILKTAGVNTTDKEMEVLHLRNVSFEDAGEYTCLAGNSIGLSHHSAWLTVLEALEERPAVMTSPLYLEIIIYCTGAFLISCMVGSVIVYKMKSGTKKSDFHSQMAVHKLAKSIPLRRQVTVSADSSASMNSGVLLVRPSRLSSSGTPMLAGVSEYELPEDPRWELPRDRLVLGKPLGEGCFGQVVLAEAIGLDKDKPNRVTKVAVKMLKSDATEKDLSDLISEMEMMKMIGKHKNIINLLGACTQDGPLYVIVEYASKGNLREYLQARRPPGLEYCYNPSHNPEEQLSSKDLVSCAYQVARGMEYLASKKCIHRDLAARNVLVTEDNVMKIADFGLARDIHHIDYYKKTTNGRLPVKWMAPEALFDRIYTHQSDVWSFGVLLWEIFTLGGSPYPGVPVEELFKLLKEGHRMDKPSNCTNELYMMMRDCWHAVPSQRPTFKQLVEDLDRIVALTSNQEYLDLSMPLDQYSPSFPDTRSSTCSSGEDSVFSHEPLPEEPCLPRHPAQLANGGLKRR
EPHB2, sequence (P29323 whole entry, looked up): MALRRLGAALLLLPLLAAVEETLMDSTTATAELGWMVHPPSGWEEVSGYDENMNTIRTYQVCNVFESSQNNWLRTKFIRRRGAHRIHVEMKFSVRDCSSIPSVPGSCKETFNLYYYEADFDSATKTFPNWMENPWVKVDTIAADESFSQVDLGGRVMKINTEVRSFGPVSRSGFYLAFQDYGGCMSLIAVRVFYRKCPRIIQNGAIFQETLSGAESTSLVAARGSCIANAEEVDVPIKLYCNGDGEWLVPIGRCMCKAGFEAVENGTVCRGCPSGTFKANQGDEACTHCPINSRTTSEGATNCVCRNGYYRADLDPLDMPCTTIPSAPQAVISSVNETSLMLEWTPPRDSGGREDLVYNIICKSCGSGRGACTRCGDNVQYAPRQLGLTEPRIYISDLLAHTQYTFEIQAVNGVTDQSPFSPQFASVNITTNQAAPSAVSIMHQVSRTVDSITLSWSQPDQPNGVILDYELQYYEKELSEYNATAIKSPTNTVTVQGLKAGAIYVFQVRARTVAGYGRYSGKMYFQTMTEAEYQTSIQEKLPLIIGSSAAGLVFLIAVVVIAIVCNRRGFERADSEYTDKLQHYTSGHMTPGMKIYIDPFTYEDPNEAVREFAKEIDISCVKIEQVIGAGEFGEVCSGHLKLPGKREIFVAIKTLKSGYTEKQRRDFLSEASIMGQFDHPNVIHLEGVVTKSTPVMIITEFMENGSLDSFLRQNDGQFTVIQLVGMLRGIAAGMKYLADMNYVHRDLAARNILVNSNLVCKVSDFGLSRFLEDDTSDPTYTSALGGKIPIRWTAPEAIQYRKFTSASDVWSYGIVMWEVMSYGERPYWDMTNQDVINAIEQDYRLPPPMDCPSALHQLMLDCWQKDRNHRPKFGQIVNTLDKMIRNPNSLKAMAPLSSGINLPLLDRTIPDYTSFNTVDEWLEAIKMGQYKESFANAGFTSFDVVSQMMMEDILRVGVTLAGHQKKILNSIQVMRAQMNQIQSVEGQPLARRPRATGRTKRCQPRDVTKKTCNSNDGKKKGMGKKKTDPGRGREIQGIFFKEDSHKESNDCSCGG

Sequence | phosphorylation enrichment (AncSZ) | phosphorylation enrichment (EPHB1) | phosphorylation enrichment (EPHB2) | phosphorylation enrichment (FGFR1) | phosphorylation enrichment (FGFR3) | phosphorylation enrichment (Fer (mouse)) | phosphorylation enrichment (Fes) | phosphorylation enrichment (Fyn) | phosphorylation enrichment (Hck) | phosphorylation enrichment (Jak2) | phosphorylation enrichment (MERTK) | phosphorylation enrichment (c-Abl (mouse)) | phosphorylation enrichment (c-Src) | SH2 binding enrichment (Grb2 SH2) | SH2 binding enrichment (SHP2-C SH2) | SH2 binding enrichment (c-Src SH2)
MKTISYETLIA [DOCK10_Y1350] | 0.847 | 0.53 | 0.474 | 0.472 | 0.622 | 0.497 | 0.926 | 0.431 | 0.501 | 0.927 | 0.384 | 0.526 | 0.379 | 0.747 | 0.792 | 1.97
GHLYAYNWISI [BEST1_Y227_D228N] | 1.71 | 6.38 | 5.2 | 3.67 | 2.83 | 12 | 1.49 | 1.01 | 1.24 | 1.33 | 8.13 | 1.21 | 1.32 | 0.944 | 0.816 | 0.738
KVMANYVFKAG [MAML2_Y513_M514V_YF] | 0.617 | 0.396 | 0.515 | 0.459 | 0.486 | 0.355 | 0.656 | 0.382 | 0.435 | 0.564 | 0.401 | 0.485 | 0.433 | 1.1 | 0.663 | 0.614
WHHTFYNEPRV [ACTA1_Y93_L96P] | 0.965 | 0.573 | 0.497 | 0.522 | 0.561 | 0.582 | 1.03 | 0.429 | 0.552 | 0.794 | 0.59 | 0.709 | 0.508 | 1.4 | 1.07 | 1.57
DFFDLYGGEKL [PTPN11_Y66_F71L_YF] | 1.54 | 0.743 | 0.901 | 0.582 | 0.746 | 0.816 | 1.92 | 2.1 | 3.61 | 1.88 | 0.9 | 1.02 | 3.79 | 1.02 | 0.979 | 0.71
TGTQLYGRFGS [ITGA2B_Y384] | 0.619 | 0.351 | 0.498 | 0.451 | 0.513 | 0.389 | 0.654 | 10.6 | 7.54 | 0.608 | 0.732 | 0.404 | 7.68 | 0.779 | 0.569 | 0.418
GPQSLYNGLVA [UCP2_Y79_R76Q] | 0.622 | 0.477 | 0.551 | 0.493 | 0.515 | 0.552 | 0.614 | 0.85 | 3.69 | 0.744 | 0.723 | 0.628 | 1.83 | 0.664 | 0.546 | 0.697
HKLSSYEYDFE [BTK_Y40_Y39S] | 1.84 | 0.822 | 0.789 | 0.952 | 1.04 | 1.03 | 1.51 | 0.72 | 0.952 | 1.38 | 0.911 | 0.966 | 1.43 | 0.69 | 0.411 | 1.33
TDIVAYSGWVQ [SPTBN2_Y477_R480W] | 1.03 | 0.684 | 0.532 | 0.573 | 0.779 | 1.38 | 1.02 | 0.824 | 1.53 | 0.82 | 0.621 | 1.75 | 1.4 | 0.881 | 1.2 | 0.642
SSLEDYVRETN [GIMAP6_Y176_G171S] | 1.03 | 0.46 | 0.527 | 0.67 | 0.641 | 0.466 | 1.06 | 0.485 | 0.431 | 0.92 | 0.424 | 0.721 | 0.44 | 0.899 | 0.776 | 0.532
TYEYKYPEGSS [TGM4_Y440] | 1.32 | 0.526 | 0.492 | 0.517 | 0.755 | 0.392 | 1.11 | 0.394 | 0.449 | 1.05 | 0.414 | 0.777 | 0.525 | 0.821 | 0.701 | 0.854
FGLQAYTKVKT [ALDH2_Y502_E504K_YF] | 1.12 | 0.763 | 0.644 | 0.472 | 0.877 | 0.476 | 1.23 | 0.546 | 0.513 | 1.33 | 0.447 | 0.799 | 0.442 | 0.744 | 1.65 | 1.38
QTLEAYIRCNK [SPAST_Y604_W607C] | 1.12 | 0.906 | 0.738 | 0.559 | 1.1 | 0.452 | 1.36 | 0.438 | 0.951 | 1.44 | 0.624 | 0.887 | 0.372 | 0.76 | 0.626 | 0.474
LKSEMYQKLFK [RGS13_Y146_L150F] | 1.02 | 0.5 | 0.614 | 0.715 | 0.923 | 0.596 | 0.993 | 0.493 | 0.756 | 1.77 | 0.7 | 0.769 | 0.626 | 0.829 | 1.24 | 0.982
ALCHYYKLNII [ETV6_Y402_R399C] | 1.59 | 0.97 | 0.738 | 5.97 | 5.13 | 0.615 | 1.62 | 0.798 | 1.09 | 3.3 | 2.26 | 2 | 1.54 | 0.895 | 1.34 | 0.855
SHGQDYLVGNK [GSTA1_Y147] | 0.585 | 0.402 | 0.456 | 0.385 | 0.419 | 0.449 | 0.74 | 0.451 | 0.412 | 0.606 | 0.363 | 0.62 | 0.417 | 0.58 | 0.564 | 0.432
TKLKDYFIFNK [CCDC42_Y149_A144T_YF] | 0.685 | 0.52 | 0.353 | 1.05 | 0.871 | 0.376 | 0.766 | 0.419 | 0.42 | 0.702 | 0.401 | 0.476 | 0.575 | 0.773 | 0.595 | 0.724

Sequence | phosphorylation enrichment (AncSZ) | phosphorylation enrichment (EPHB1) | phosphorylation enrichment (EPHB2) | phosphorylation enrichment (FGFR1) | phosphorylation enrichment (FGFR3) | phosphorylation enrichment (Fer (mouse)) | phosphorylation enrichment (Fes) | phosphorylation enrichment (Fyn) | phosphorylation enrichment (Hck) | phosphorylation enrichment (Jak2) | phosphorylation enrichment (MERTK) | phosphorylation enrichment (c-Abl (mouse)) | phosphorylation enrichment (c-Src) | SH2 binding enrichment (Grb2 SH2) | SH2 binding enrichment (SHP2-C SH2) | SH2 binding enrichment (c-Src SH2)
IIWDSYTTNKM [GNB4_Y85] | 1.3 | 0.68 | 0.656 | 0.575 | 0.671 | 0.527 | 1.21 | 0.682 | 0.506 | 0.873 | 0.401 | 0.596 | 0.321 | 0.941 | 0.886 | 0.438
SIKGKYVTALF [KCNH2_Y611_D609G_YF] | 0.771 | 0.519 | 0.409 | 0.361 | 0.449 | 0.525 | 0.798 | 0.406 | 0.408 | 0.77 | 0.414 | 0.617 | 0.495 | 0.988 | 0.806 | 0.735
QGCGIYKDFFR [PLA2G2D_Y82_S80G_YF] | 1.08 | 0.548 | 0.852 | 0.7 | 0.885 | 0.76 | 1.49 | 5.88 | 3.89 | 1.17 | 0.534 | 1.26 | 6.23 | 1.03 | 1.38 | 0.753
ELTSVYGSRAR [SENP1_Y349_D350G] | 0.523 | 0.378 | 0.42 | 0.41 | 0.583 | 0.424 | 0.633 | 1.97 | 1.86 | 0.538 | 0.449 | 0.567 | 1.96 | 0.69 | 0.501 | 0.411
AKKVFYMIETR [SHH_Y253_V254M] | 1.15 | 0.606 | 0.622 | 0.448 | 0.881 | 0.561 | 1.24 | 0.439 | 0.444 | 1.02 | 0.386 | 0.673 | 0.472 | 1.46 | 1.01 | 1.06
IKEFKYGIEEH [GJA1_Y137_K134E] | 0.836 | 0.39 | 0.464 | 0.508 | 0.684 | 0.402 | 0.918 | 0.349 | 0.42 | 0.581 | 0.342 | 0.612 | 0.365 | 0.856 | 0.489 | 0.457
NTVDYYDLYGG [PTPN11_Y63_G60V] | 2.56 | 4.4 | 3.7 | 15.3 | 13.1 | 1.19 | 1.21 | 6.7 | 5.68 | 1.47 | 1.35 | 0.788 | 4.25 | 0.985 | 0.692 | 0.801
KVMANYMYKAG [MAML2_Y513] | 0.617 | 0.505 | 0.533 | 0.529 | 0.512 | 0.388 | 0.836 | 0.404 | 0.461 | 0.49 | 0.33 | 0.54 | 0.296 | 1.16 | 1.06 | 0.849
KEDSAYGSQSV [NFKB2_Y868] | 0.978 | 0.502 | 0.521 | 0.428 | 0.584 | 0.409 | 1.07 | 0.535 | 0.583 | 1.11 | 0.454 | 0.911 | 0.502 | 0.817 | 0.756 | 0.558
QSAGQYSSQGL [TNNI3K_Y788] | 0.703 | 0.95 | 0.414 | 0.387 | 0.542 | 0.622 | 1.15 | 0.459 | 0.855 | 0.636 | 0.584 | 0.777 | 0.418 | 0.944 | 0.924 | 0.369
GSLEDYVRETN [GIMAP6_Y176] | 1 | 0.438 | 0.573 | 0.501 | 0.661 | 0.398 | 0.869 | 0.468 | 0.54 | 0.724 | 0.442 | 0.619 | 0.424 | 0.785 | 0.656 | 0.541
HHIDYYKKTTN [FGFR1_Y654] | 0.577 | 0.47 | 0.721 | 0.568 | 0.803 | 0.646 | 0.633 | 0.711 | 0.481 | 0.592 | 0.663 | 0.569 | 0.481 | 0.699 | 0.535 | 0.443
TNEFEYDELIV [TGM1_Y136_D132N_YF] | 1.61 | 0.51 | 0.424 | 0.658 | 0.887 | 0.709 | 1.61 | 0.475 | 0.747 | 1.37 | 0.483 | 0.951 | 0.669 | 0.804 | 0.679 | 0.47
SLNAVYPRAGR [OAS3_Y376_S381R] | 0.763 | 0.354 | 0.414 | 0.415 | 0.445 | 0.384 | 0.692 | 0.471 | 0.405 | 0.655 | 0.409 | 0.488 | 0.525 | 0.851 | 0.63 | 0.466
SHGKQYRVPSD [HHIPL2_Y395_R394Q] | 0.54 | 0.35 | 0.371 | 0.344 | 0.427 | 0.354 | 0.544 | 0.34 | 0.4 | 0.46 | 0.347 | 0.512 | 0.353 | 0.686 | 0.475 | 0.403
FKIFRYTLNDN [FN1_Y1975_L1974R_YF] | 1.02 | 0.518 | 0.525 | 0.529 | 0.589 | 0.403 | 1.03 | 0.42 | 0.464 | 1.01 | 0.377 | 0.614 | 0.36 | 1.02 | 0.958 | 0.548
